Reference: the RNAGym collection of RNA variant scans (doi:10.1093/molbev/msab373)

B1: Azoarcus group I ribozyme (parent)
chain: GUGCCUUGCGCCGGGAAACCACGCAAGGGAUGGUGUCAAAUUCGGCGAAACCUAAGCGCCCGCCCGGGCGUAUGGCAACGCCGAGCCAAGCUUCGGCGCCUGCGCCGAUGAAGGUGUAGAGACUAGACGGCACCCACCUAAGGCAAACGCUAUGGUGAAGGCAUAGUCCAGGGAGUGGCGAAAGUCACACAAACCGG

Variants of: B1
Experiment: reverse-splicing fitness (ratio to wild type); higher = more active; in vitro selection; Mg2+ level not given
Summary of the method: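 An in vitro group I ribozyme library with randomized positions was T7-transcribed and gel-purified. In triplicate, 10 pmol RNA in EPPS pH 7.5 was reacted with 50 pmoles of a 30-nt RNA substrate for 1 h at 37 °C across several added MgCl2 levels (1–48 mM), then stopped with EDTA. Products were reverse transcribed from a substrate-complementary primer, PCR-amplified and sequenced (HiSeq 4000). Fitness is a variant's read proportion after selection over that before, normalised to wild type.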

Variant	reverse-splicing fitness
GUGCCUUGCGCCGGGAAACCACGCAAGGGAUGGUGUCAAAUUCGGCGAAACCUAAGCGCCCGCCCGGGCGUAUGGCAACGCUGAGCCAAGCUUCGGCGCCUGCGCCGAUGUAGGUGUAGAGACUAGACGGCACCCACCUAAGGCUAACGAUAUGGUGAAGGCAUAGUCUAGGGAGUGGCGAAAGUCACACAAACCGG	0.0106
GUGCCUUGCGCCGGGAAACCACGCAAGGGAUGGUGUCAAAUUCGGCGAAACCUAAGCGCCCGCCCGGGCGUAUGGCAACGCUGAGCCAAGCUUCGGCGCCUGCGCCGAUGUAGGUGUAGAGACUAGACGGCACCCACCUAAGGCUAACGGUAUGGUGAAGGCAUAGUCAAGGGAGCGGCGAAAGUCACACAAACCGG	0.00962
GUGCCUUGCGCCGGGAAACCACGCAAGGGAUGGUGUCAAAUUCGGCGAAACCUAAGCGCCCGCCCGGGCGUAUGGCAACGCUGAGCCAAGCUUCGGCGCCUGCGCCGAUGUAGGUGUAGAGACUAGACGGCACCCACCUAAGGCUAACGGUAUGGUGAAGGCAUAGUCAAGGGAGGGGCGAAAGUCACACAAACCGG	0.00684
GUGCCUUGCGCCGGGAAACCACGCAAGGGAUGGUGUCAAAUUCGGCGAAACCUAAGCGCCCGCCCGGGCGUAUGGCAACGCUGAGCCAAGCUUCGGCGCCUGCGCCGAUGUAGGUGUAGAGACUAGACGGCACCCACCUAAGGCUAACGGUAUGGUGAAGGCAUAGUCAAGGGAGAGGCGAAAGUCACACAAACCGG	0.0112
GUGCCUUGCGCCGGGAAACCACGCAAGGGAUGGUGUCAAAUUCGGCGAAACCUAAGCGCCCGCCCGGGCGUAUGGCAACGCUGAGCCAAGCUUCGGCGCCUGCGCCGAUGUAGGUGUAGAGACUAGACGGCACCCACCUAAGGCUAACGGUAUGGUGAAGGCAUAGUCCAGGGAGAGGCGAAAGUCACACAAACCGG	0.0103
GUGCCUUGCGCCGGGAAACCACGCAAGGGAUGGUGUCAAAUUCGGCGAAACCUAAGCGCCCGCCCGGGCGUAUGGCAACGCUGAGCCAAGCUUCGGCGCCUGCGCCGAUGUAGGUGUAGAGACUAGACGGCACCCACCUAAGGCUAACGGUAUGGUGAAGGCAUAGUCCAGGGAGGGGCGAAAGUCACACAAACCGG	0.00449
GUGCCUUGCGCCGGGAAACCACGCAAGGGAUGGUGUCAAAUUCGGCGAAACCUAAGCGCCCGCCCGGGCGUAUGGCAACGCUGAGCCAAGCUUCGGCGCCUGCGCCGAUGUAGGUGUAGAGACUAGACGGCACCCACCUAAGGCUAACGGUAUGGUGAAGGCAUAGUCCAGGGAGCGGCGAAAGUCACACAAACCGG	0.019
GUGCCUUGCGCCGGGAAACCACGCAAGGGAUGGUGUCAAAUUCGGCGAAACCUAAGCGCCCGCCCGGGCGUAUGGCAACGCUGAGCCAAGCUUCGGCGCCUGCGCCGAUGUAGGUGUAGAGACUAGACGGCACCCACCUAAGGCUAACGAUAUGGUGAAGGCAUAGUCCAGGGAGCGGCGAAAGUCACACAAACCGG	0.022
GUGCCUUGCGCCGGGAAACCACGCAAGGGAUGGUGUCAAAUUCGGCGAAACCUAAGCGCCCGCCCGGGCGUAUGGCAACGCUGAGCCAAGCUUCGGCGCCUGCGCCGAUGUAGGUGUAGAGACUAGACGGCACCCACCUAAGGCUAACGAUAUGGUGAAGGCAUAGUCCAGGGAGAGGCGAAAGUCACACAAACCGG	0.0154
GUGCCUUGCGCCGGGAAACCACGCAAGGGAUGGUGUCAAAUUCGGCGAAACCUAAGCGCCCGCCCGGGCGUAUGGCAACGCUGAGCCAAGCUUCGGCGCCUGCGCCGAUGUAGGUGUAGAGACUAGACGGCACCCACCUAAGGCUAACGAUAUGGUGAAGGCAUAGUCCAGGGAGGGGCGAAAGUCACACAAACCGG	0.00782
GUGCCUUGCGCCGGGAAACCACGCAAGGGAUGGUGUCAAAUUCGGCGAAACCUAAGCGCCCGCCCGGGCGUAUGGCAACGCUGAGCCAAGCUUCGGCGCCUGCGCCGAUGUAGGUGUAGAGACUAGACGGCACCCACCUAAGGCUAACGUUAUGGUGAAGGCAUAGUCAAGGGAGUGGCGAAAGUCACACAAACCGG	0.00818
GUGCCUUGCGCCGGGAAACCACGCAAGGGAUGGUGUCAAAUUCGGCGAAACCUAAGCGCCCGCCCGGGCGUAUGGCAACGCUGAGCCAAGCUUCGGCGCCUGCGCCGAUGUAGGUGUAGAGACUAGACGGCACCCACCUAAGGCUAACGAUAUGGUGAAGGCAUAGUCUAGGGAGCGGCGAAAGUCACACAAACCGG	0.0118
GUGCCUUGCGCCGGGAAACCACGCAAGGGAUGGUGUCAAAUUCGGCGAAACCUAAGCGCCCGCCCGGGCGUAUGGCAACGCUGAGCCAAGCUUCGGCGCCUGCGCCGAUGUAGGUGUAGAGACUAGACGGCACCCACCUAAGGCUAACGAUAUGGUGAAGGCAUAGUCUAGGGAGGGGCGAAAGUCACACAAACCGG	0.00593
GUGCCUUGCGCCGGGAAACCACGCAAGGGAUGGUGUCAAAUUCGGCGAAACCUAAGCGCCCGCCCGGGCGUAUGGCAACGCUGAGCCAAGCUUCGGCGCCUGCGCCGAUGUAGGUGUAGAGACUAGACGGCACCCACCUAAGGCUAACGAUAUGGUGAAGGCAUAGUCUAGGGAGAGGCGAAAGUCACACAAACCGG	0.0133
GUGCCUUGCGCCGGGAAACCACGCAAGGGAUGGUGUCAAAUUCGGCGAAACCUAAGCGCCCGCCCGGGCGUAUGGCAACGCUGAGCCAAGCUUCGGCGCCUGCGCCGAUGUAGGUGUAGAGACUAGACGGCACCCACCUAAGGCUAACGUUAUGGUGAAGGCAUAGUCAAGGGAGAGGCGAAAGUCACACAAACCGG	0.0113
GUGCCUUGCGCCGGGAAACCACGCAAGGGAUGGUGUCAAAUUCGGCGAAACCUAAGCGCCCGCCCGGGCGUAUGGCAACGCUGAGCCAAGCUUCGGCGCCUGCGCCGAUGUAGGUGUAGAGACUAGACGGCACCCACCUAAGGCUAACGUUAUGGUGAAGGCAUAGUCAAGGGAGCGGCGAAAGUCACACAAACCGG	0.00869
GUGCCUUGCGCCGGGAAACCACGCAAGGGAUGGUGUCAAAUUCGGCGAAACCUAAGCGCCCGCCCGGGCGUAUGGCAACGCUGAGCCAAGCUUCGGCGCCUGCGCCGAUGUAGGUGUAGAGACUAGACGGCACCCACCUAAGGCUAACGUUAUGGUGAAGGCAUAGUCCAGGGAGUGGCGAAAGUCACACAAACCGG	0.183
GUGCCUUGCGCCGGGAAACCACGCAAGGGAUGGUGUCAAAUUCGGCGAAACCUAAGCGCCCGCCCGGGCGUAUGGCAACGCUGAGCCAAGCUUCGGCGCCUGCGCCGAUGUAGGUGUAGAGACUAGACGGCACCCACCUAAGGCUAACGGUAUGGUGAAGGCAUAGUCCAGGGAGUGGCGAAAGUCACACAAACCGG	0.028
GUGCCUUGCGCCGGGAAACCACGCAAGGGAUGGUGUCAAAUUCGGCGAAACCUAAGCGCCCGCCCGGGCGUAUGGCAACGCUGAGCCAAGCUUCGGCGCCUGCGCCGAUGUAGGUGUAGAGACUAGACGGCACCCACCUAAGGCUAACGGUAUGGUGAAGGCAUAGUCUAGGGAGUGGCGAAAGUCACACAAACCGG	0.00858
GUGCCUUGCGCCGGGAAACCACGCAAGGGAUGGUGUCAAAUUCGGCGAAACCUAAGCGCCCGCCCGGGCGUAUGGCAACGCUGAGCCAAGCUUCGGCGCCUGCGCCGAUGUAGGUGUAGAGACUAGACGGCACCCACCUAAGGCUAACGGUAUGGUGAAGGCAUAGUCAAGGGAGUGGCGAAAGUCACACAAACCGG	0.00958
GUGCCUUGCGCCGGGAAACCACGCAAGGGAUGGUGUCAAAUUCGGCGAAACCUAAGCGCCCGCCCGGGCGUAUGGCAACGCUGAGCCAAGCUUCGGCGCCUGCGCCGAUGUAGGUGUAGAGACUAGACGGCACCCACCUAAGGCUAACGGUAUGGUGAAGGCAUAGUCGAGGGAGUGGCGAAAGUCACACAAACCGG	0.0071
GUGCCUUGCGCCGGGAAACCACGCAAGGGAUGGUGUCAAAUUCGGCGAAACCUAAGCGCCCGCCCGGGCGUAUGGCAACGCUGAGCCAAGCUUCGGCGCCUGCGCCGAUGUAGGUGUAGAGACUAGACGGCACCCACCUAAGGCUAACGAUAUGGUGAAGGCAUAGUCGAGGGAGCGGCGAAAGUCACACAAACCGG	0.0121
GUGCCUUGCGCCGGGAAACCACGCAAGGGAUGGUGUCAAAUUCGGCGAAACCUAAGCGCCCGCCCGGGCGUAUGGCAACGCUGAGCCAAGCUUCGGCGCCUGCGCCGAUGUAGGUGUAGAGACUAGACGGCACCCACCUAAGGCUAACGAUAUGGUGAAGGCAUAGUCGAGGGAGAGGCGAAAGUCACACAAACCGG	0.011
GUGCCUUGCGCCGGGAAACCACGCAAGGGAUGGUGUCAAAUUCGGCGAAACCUAAGCGCCCGCCCGGGCGUAUGGCAACGCUGAGCCAAGCUUCGGCGCCUGCGCCGAUGUAGGUGUAGAGACUAGACGGCACCCACCUAAGGCUAACGAUAUGGUGAAGGCAUAGUCGAGGGAGGGGCGAAAGUCACACAAACCGG	0.00594
GUGCCUUGCGCCGGGAAACCACGCAAGGGAUGGUGUCAAAUUCGGCGAAACCUAAGCGCCCGCCCGGGCGUAUGGCAACGCUGAGCCAAGCUUCGGCGCCUGCGCCGAUGUAGGUGUAGAGACUAGACGGCACCCACCUAAGGCUAACGGUAUGGUGAAGGCAUAGUCUAGGGAGAGGCGAAAGUCACACAAACCGG	0.00893
GUGCCUUGCGCCGGGAAACCACGCAAGGGAUGGUGUCAAAUUCGGCGAAACCUAAGCGCCCGCCCGGGCGUAUGGCAACGCUGAGCCAAGCUUCGGCGCCUGCGCCGAUGUAGGUGUAGAGACUAGACGGCACCCACCUAAGGCUAACGGUAUGGUGAAGGCAUAGUCUAGGGAGCGGCGAAAGUCACACAAACCGG	0.0107
GUGCCUUGCGCCGGGAAACCACGCAAGGGAUGGUGUCAAAUUCGGCGAAACCUAAGCGCCCGCCCGGGCGUAUGGCAACGCUGAGCCAAGCUUCGGCGCCUGCGCCGAUGUAGGUGUAGAGACUAGACGGCACCCACCUAAGGCUAACGGUAUGGUGAAGGCAUAGUCUAGGGAGGGGCGAAAGUCACACAAACCGG	0.00616
GUGCCUUGCGCCGGGAAACCACGCAAGGGAUGGUGUCAAAUUCGGCGAAACCUAAGCGCCCGCCCGGGCGUAUGGCAACGCUGAGCCAAGCUUCGGCGCCUGCGCCGAUGUAGGUGUAGAGACUAGACGGCACCCACCUAAGGCUAACGGUAUGGUGAAGGCAUAGUCGAGGGAGAGGCGAAAGUCACACAAACCGG	0.00698
GUGCCUUGCGCCGGGAAACCACGCAAGGGAUGGUGUCAAAUUCGGCGAAACCUAAGCGCCCGCCCGGGCGUAUGGCAACGCUGAGCCAAGCUUCGGCGCCUGCGCCGAUGUAGGUGUAGAGACUAGACGGCACCCACCUAAGGCUAACGGUAUGGUGAAGGCAUAGUCGAGGGAGGGGCGAAAGUCACACAAACCGG	0.00587
GUGCCUUGCGCCGGGAAACCACGCAAGGGAUGGUGUCAAAUUCGGCGAAACCUAAGCGCCCGCCCGGGCGUAUGGCAACGCUGAGCCAAGCUUCGGCGCCUGCGCCGAUGUAGGUGUAGAGACUAGACGGCACCCACCUAAGGCUAACGGUAUGGUGAAGGCAUAGUCGAGGGAGCGGCGAAAGUCACACAAACCGG	0.00578
